Laboratory results from article PMC3679926.

Experiments:
[1] = target: T1, p53 (rp53) (UniProt P04637 1-393); test: EMSA
[2] = target: T1, p53 (rp53); test: competition

T1 sequence (P04637 whole entry): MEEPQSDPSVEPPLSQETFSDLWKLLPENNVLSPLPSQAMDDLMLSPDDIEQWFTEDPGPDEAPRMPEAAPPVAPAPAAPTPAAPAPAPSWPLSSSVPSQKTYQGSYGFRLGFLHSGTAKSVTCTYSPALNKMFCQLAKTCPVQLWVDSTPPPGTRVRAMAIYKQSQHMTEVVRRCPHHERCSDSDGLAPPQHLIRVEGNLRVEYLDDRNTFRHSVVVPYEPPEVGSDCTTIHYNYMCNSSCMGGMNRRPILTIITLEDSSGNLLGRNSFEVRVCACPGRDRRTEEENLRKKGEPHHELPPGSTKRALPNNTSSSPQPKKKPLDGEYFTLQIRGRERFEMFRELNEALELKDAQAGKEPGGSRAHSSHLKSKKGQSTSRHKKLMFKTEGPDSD

| Binder | binding result [1] | binding result [2] |
| --- | --- | --- |
| p53RE wt (miR-205 upstream p53BS) (dsDNA) DNA 1: ACTGAGCCATGGGCATGTCTGAACACAACA DNA 2: TGTTGTGTTCAGACATGCCCATGGCTCAGT | binds |  |
| p53RE MUT (dsDNA) DNA 1: ACTGAGCCATCCCGGCCGGCGAACACAACA DNA 2: TGTTGTGTTCGCCGGCCGGGATGGCTCAGT | no binding |  |
| p53RE wt, unlabeled competitor (dsDNA) DNA 1: ACTGAGCCATGGGCATGTCTGAACACAACA DNA 2: TGTTGTGTTCAGACATGCCCATGGCTCAGT |  | binds |
